Source: EP1441764B1

Target: C-RANKL protein (mouse RANKL fragment with N-terminal cysteine-containing linker GPGCGGG and hexahistidine tag) (mouse) (UniProt O35235)
Experiment: ELISA on plates coated with C-RANKL 10 ug/ml, serial dilutions of RANK-Fc, anti-Fc-HRP detection

Chain of UniProt O35235 (O35235 other isoform, or with tags, fused parts or gaps limits assumed, form in doubt): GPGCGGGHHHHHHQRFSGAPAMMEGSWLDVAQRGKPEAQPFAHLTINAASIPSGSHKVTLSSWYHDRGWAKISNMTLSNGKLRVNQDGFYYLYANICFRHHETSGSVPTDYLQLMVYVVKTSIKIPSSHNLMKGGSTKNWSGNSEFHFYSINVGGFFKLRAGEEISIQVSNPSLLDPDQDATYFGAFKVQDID

EC50: 1 to 3 nM
Substance: purified RANK-Fc fusion protein
